From paper PMC3172200 (PLoS Biology, 2011)
Where no end group is shown, it is not given here. [ ]: non-standard residue; d: D form.

T1: recombinant wild type SEB with N-terminal His6-tag (S. aureus COL, UniProt P01552 28-266)
T1 sequence: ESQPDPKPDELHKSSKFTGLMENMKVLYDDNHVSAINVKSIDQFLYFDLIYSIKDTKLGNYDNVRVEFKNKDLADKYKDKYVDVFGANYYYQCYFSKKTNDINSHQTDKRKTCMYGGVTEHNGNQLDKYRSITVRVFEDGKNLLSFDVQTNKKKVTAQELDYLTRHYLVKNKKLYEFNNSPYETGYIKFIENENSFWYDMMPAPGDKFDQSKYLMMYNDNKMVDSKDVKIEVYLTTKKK


Target: T1, recombinant wild type SEB with …
Experiment: western blot of SEB bound to transfected cells
Conditions: both partners purified

Row | Binder | binding result
1 | ASPMLVAYDA (D-Ala at both termini, source: synthetic peptide) [p2TA (SPMLVAYD; CD28 8-15), form for biological assays] | binds
2 | [dA]HVKGKHLCP[dA] (source: synthetic peptide) [p1TA (HVKGKHLCP; CD28 116-124), form for biological assays] | binds
